Test results taken from patent US20180362628A1 (KYMAB, published 2018).

Target: T1, full CSP protein (analyte of Example 12) (Plasmodium falciparum (isolate 3D7), UniProt Q7K740 19-374)
T1 construct: not shown: C-terminal tags
Assay: SPR, IgG1 from supernatant on anti-human IgG surface, CSP as analyte, 25 C, 1:1 fit

T1 sequence (Q7K740 19-374 limits assumed): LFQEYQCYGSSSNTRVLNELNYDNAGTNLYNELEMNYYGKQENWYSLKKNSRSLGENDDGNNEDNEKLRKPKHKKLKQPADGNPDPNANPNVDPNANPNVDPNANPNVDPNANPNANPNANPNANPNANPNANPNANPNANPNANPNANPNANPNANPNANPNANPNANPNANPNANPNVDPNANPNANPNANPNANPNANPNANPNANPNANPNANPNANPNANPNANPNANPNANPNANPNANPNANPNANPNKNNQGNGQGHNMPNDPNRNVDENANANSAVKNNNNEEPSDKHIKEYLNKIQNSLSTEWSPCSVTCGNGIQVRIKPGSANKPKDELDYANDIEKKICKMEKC

Row | Binder | kon
1 | CL-141799 (antibody, V domains shown, human IgG1, HEK (Expi293F) culture supernatant) VH: QVQLVQSGAEVKKPGASVKVSCKASGFTFTDYAMHWVRQAPGQRLEWMGWINAGNGYTKYSQKFQDRLTITRDTFASTVYMELSSLRSEDTTVYYCARDGFCPSNTCSGYYGMDVWGQGTTVTVSS VL: QSALTQPASVSGSPGQSITISCTGTSSDVGAYKYVSWYQQHPGKAPKLMIYDVNTRPSGVSTRFSASKSGNTASLTVSGLQAEDEAVYYCSSYAGSSTWVFGGGTKLTVL | 486000 M⁻¹ s⁻¹
2 | CL-141766 (antibody, V domains shown, human IgG1, HEK (Expi293F) culture supernatant) VH: QVQLVQSGAEVKKPGASVKVSCKASGYTFTSYAMHWVRQAPGQRLEWMGWINAGNGNTKYSQKFQGGVTITRDTSASTAYMELSSLRSEDTAVYYCARDNYYDSGSYYDYYYYGMDVWGQGTTVTVSS VL: QSALTQPASVSGSPGQSITFSCTGTSSDVGSYNHVSWYQQHPGKAPKLMIYDVSKRPSGVSNRFSGSKSGNTASLTISGLQAEDEADYYCCSYAGSSTWVFGGGTKLTVL | 528000 M⁻¹ s⁻¹
3 | CL-141791 (antibody, V domains shown, human IgG1, HEK (Expi293F) culture supernatant) VH: QVQLVQSGAEVKKPGASVKVSCRASGYTFTNYAMHWVRQAPGQRLEWMGWINAGNGYTKYSQKFQDRVTITRDTSATTAHMELSSLRSEDTAMYYCARDSFYDILTGPVYHYYGMDVWGQGTTVTVSS VL: QSALTQPDSVSGSPGQSITISCTGTSNDVGVYNHVSWYQQHPGKAPKLMIYDVSKRPSGVSNRFSGSKSGNTASLTISGLQAEDEADYYCCSYVGSSAWVFGGGTNLTVL | 253000 M⁻¹ s⁻¹
4 | CL-141783 (antibody, V domains shown, human IgG1, HEK (Expi293F) culture supernatant) VH: QVQLVQSGAEVKKPGASVKLSCKASGYTFTNYAMHWVRQAPGQSLEWMGWINAGNGYTKYSQKFQGRVTITRDTSANTAYMDLSSLRSEDTAVYYCARDQYYDILKGYYNVDYYYGMDVWGQGTTVAVSS VL: QSALTQPASVSGSPGQSITISCTGTSSDVGSYNHVSWYQQHPGKAPKLMIYDVSKRPSGVSDRFSGSKSGNTASLTISGLQAEDEADYYCCSYVGSSTWVFGGGTKLTVL | 128000 M⁻¹ s⁻¹
5 | CL-141772 (antibody, V domains shown, human IgG1, HEK (Expi293F) culture supernatant) VH: QVQLVQSGAEVKKPGASVKVSCKASGFIFINYAMQWVRQAPGQRLEWMGWINAGNGYTKYSQKFQGRVTITRDISANTVYMELSSLRSEDTAVYYCARDGFCSTTTCSDHYGMDVWGQGTTVTVSS VL: QSALTQPASVSGSPGQSITISCTGTSSDVGGYNYVSWYQQHPGKAPKLMIYDVSKRPSGVSDRFSGSKSGNTASLTISGLQTEDEADYYCCSYAGSSTWVFGGGTKLTVL | 338000 M⁻¹ s⁻¹
6 | CL-141802 (antibody, V domains shown, human IgG1, HEK (Expi293F) culture supernatant) VH: QVQLVQSGTEVKKPGASVKVSCKASGFTFSSYAMHWVRQAPGQRLEWMGWINAGNGNTKYSQKFQGRVTITRDTSASTAYMELSSLRSEDTAVYYCARDGYCSSTSCYGYYGMDVWGQGTTVTVSS VL: QSALTQPASVSGSPGQSITISCTGTSSDVGAYNYVSWYQQHPGKAPKLMISDVSKRPSGVSNRFSGSKSDNTASLTVSGLQAEDEAVYYCCSYAGSSTWVFGGGTKLTVL | 313000 M⁻¹ s⁻¹
7 | CL-141792 (antibody, V domains shown, human IgG1, HEK (Expi293F) culture supernatant) VH: QVQLVQSGAEVKKPGASVKVSCKASGYTFTSYAMHWVRQAPGQRLEWMGWINAGNGYTKYSQNFQGRVTITRDTSASTAYMELSSLRSEDTAVYYCARDNYFDSSVYDSSYYFYYGMDVWGQGTTVTVSS VL: QSALTQPASVSGSPGQSITISCTGTSSDVGSYNHVSWYQQHPGKAPKLMIYDVSKRPSGVSNRFSGSKSGNTASLTISGLQAEDEADYYCCSYAGSSTWVFGGGTKLTVL | 51300 M⁻¹ s⁻¹
8 | CL-141805 (antibody, V domains shown, human IgG1, HEK (Expi293F) culture supernatant) VH: QVQLVQSGAEVKKPGASVKVSCKASGYTFTNYAMHWVRQAPGQRLEWMGWINAGNGNTKYSQNFQGRVTITRDTSASTAYMELSSLRSEDTAVYYCARDEYYASGSYYDYYYYGMDVWGQGTTVTVTS VL: QSALTQPASVSGSPGQSITISCTGTSSDVGVYNYVSWFQQHPGKAPKLMIYNVSKRPSGVSNRFSGSKSGNTASLTISGLQAEDEADYYCCSYAGSSTWVFGGGTNLTVL | 1.19e+06 M⁻¹ s⁻¹
9 | CL-141806 (antibody, V domains shown, human IgG1, HEK (Expi293F) culture supernatant) VH: QVQLVQSGAEVKKPGASVKVSCKASGYTFTNYAIHWVRQAPGQRLEWMGWINAGNGNTKYSQKFQGRVTITRDTSASTAYMELSSLRSEDTAVYYCARDNFYGSGTYFSYFFYHMDVWGQGTTVTVSS VL: QSALTQPASVSGSPGQSITISCTGTSSDVGSYNHVSWYQQHPGKAPKLMIYDVSKRPSGMSDRFSGSKSGNTASLTISGLQAEDEADYYCCSYAGSSTWVFGGGTKLTVL | 284000 M⁻¹ s⁻¹
10 | CL-141779 (antibody, V domains shown, human IgG1, HEK (Expi293F) culture supernatant) VH: QVQLVQSGAEVKKPGASVKVSCKASGYTFTSYAMHWVRQAPGQRLEWMGWINAGNGNTKYSQKFQGRVTITRDTSASTAYMELSSLRSEDTAVYYCARDQYYDILTPYYYYYYGMDVWGQGTTVTVSS VL: QSALTQPASVSGSPGQSITISCTGTSSDVGGYNYVSWYQQHPGKAPKLMIYVVSKRPSGVSNRFSGSKSGNTASLTISGLQAEDEADYYCCSYAGSSTWVFGGGTKLTVL | 298000 M⁻¹ s⁻¹
11 | CL-141785 (antibody, V domains shown, human IgG1, HEK (Expi293F) culture supernatant) VH: QVQLVQSGAEVKKPGASVRVSCKASGFTFISYAMHWVRQAPGQGLEWMGWINAGDGHTKYSQKFQDRVAITRDTSATTVYMDLSSLRSEDTAVYYCSRDGFCTTTTCSDHYGMDVWGQGTTVTVSS VL: QSALTQPASVSGSPGQSITISCTGTSSDVGSYNYVSWYQQHPGKAPKFMIYDVSKRPSGVSDRFSGSKSGNTASLTISGLQAEDEADYYCCSYAGSSTWVFGGGTKLTVL | 573000 M⁻¹ s⁻¹
12 | CL-141769 (antibody, V domains shown, human IgG1, HEK (Expi293F) culture supernatant) VH: QVQLVQSGAEVKKPGASVKVSCRASGYTFTNYAMHWVRQAPGQRLEWMGWINAGNGYTKYSQKFQDRFTITRDTSATTAYMELSSLRSEDTAVYYCARDSFYDILTGPVYHYYGMDVWGQGTTVTVSS VL: QSALTQPDSVSGSPGQSITISCTGTSNDVGVYNHVSWYQQHPGKAPKLMIYDVSKRPSGVSNRFSGSKSGNTASLTISGLQAEDESDYYCCSYAGSSTWVFGGGTKLTVL | 156000 M⁻¹ s⁻¹
13 | CL-141781 (antibody, V domains shown, human IgG1, HEK (Expi293F) culture supernatant) VH: QVQLVQSGAEVKKPGASVKVSCRASGYTFSNYAMHWVRQAPGQRLEWMGWINAGNGYTKYSQKFQDRVTITRDTSATTAYMELSSLRSEDTAMYYCSRDSFYDILTGPVYHYYGMDVWGQGTTVTVSS VL: QSALTQPDSVSGSPGQSITISCTGTSNDVGVYNHVSWYQQHPGKAPKLMIYDVSKRPSGVSNRFSGSKSGNTASLTISGLQAEDEADYYCCSYVGNSAWVFGGGTKLTVL | 221000 M⁻¹ s⁻¹
14 | CL-141776 (antibody, V domains shown, human IgG1, HEK (Expi293F) culture supernatant) VH: QVQLVQSGAEVKNPGASVKVSCKASGFTFTNYAMHWVRQAPGQRLEWMGWINAGNGHTKYSQKFQDRVAITRDTSATTAYMELSSLRSEDTAVYYCSRDGFCSTTTCSDHYGMDVWGQGTTVTVSS VL: QSALTQPASVSGSPGQSITISCTGTSSDVGGYNYVSWYQQHPGKAPKFMIYDVSKRPSGVSNRFSGSKSGNTASLTISGLQAEDEADYYCCSYAGSSTWVFGGGTKLTVL | 143000 M⁻¹ s⁻¹
15 | CL-141789 (antibody, V domains shown, human IgG1, HEK (Expi293F) culture supernatant) VH: QVQLVQSGAEVKKPGASVRVSCKTSGFTFTSYAIQWVRQAPGQGLEWMGWINAGDGHTKYSQKFQDRVVITRDTSATTVYMDLSSLRSEDTAVYYCTRDGFCTTTTCSDHYGMDVWGQGTTVTVSS VL: QSALTQPASVSGSPGQSITISCTGTSSDVGSYNYVSWYQQHPGKVPKFMISDVSKRPSGISDRFSGSKSGNTASLTISGLQAEDEADYYCCSYAGGSTWVFGGGTKLTVL | 293000 M⁻¹ s⁻¹
